The values below come from US5972902, “DNA encoding human IL-6 receptor antagonist and protein encoded thereby” (dated 1999).

Test [1] addresses T1, hIL-6 receptor (human, UniProt P08887).
For test [2], the target named is T1, hIL-6 receptor. Nature of the test: receptor binding assay by the method of Savino et al. 1994. The method, then: The proteins IL-6 DFRD/D160R (coded by the cDNA described in SEQ ID NO:4), IL-6 DFRD/W157R/D160R (coded by the cDNA described in SEQ ID NO:5) and IL-6 DFRD/T162D (coded by the cDNA described in SEQ ID NO:6) were produced according to the state of the art, as described (Arcone, R., Pucci, P., Zappacosta, F., Fontaine, V., Malorni, A., Marino, G., and Ciliberto, G., Eur. J. Biochem. 198, 541–547, 1991). The ability of the mutants to bind to the hIL-6 receptor was measured using state of the art methods, as described (Savino, R., Lahm, A., Salvati, A. L., Ciapponi, L., Sporeno, E., Altamura, S., Paonessa, G., Toniatti, C., Ciliberto, G., EMBO J. 13, 1357–1367, 1994). Table 1 below gives the receptor binding levels for wild type IL-6 and for the mutant forms obtained as described in example 1.

In the next test the target is gp130 (Homo sapiens (Human), UniProt P40189). Nature of the test: cell-based or functional assay.

In the test with hIL-6 receptor [1], Sant7 (ligand) showed a 90% inhibition of interleukin-6 activity on hepatoma cells Hep3B (4 ng/ml wild type IL-6) of 30 ng/mL; a 90% inhibition of interleukin-6 activity on myeloma cells XG-1 (IL-6-dependent growth, 0.1 ng/ml wild type IL-6) of 35 ng/mL; a 90% inhibition of interleukin-6 activity on myeloma cells XG-2 (IL-6-dependent growth, 0.5 ng/ml wild type IL-6) of 950 ng/mL.

B1: IL-6 DFRD/D160R (ligand)
chain: PVPPGEDSKDVAAPHRQPLTSSERIDKQIRDILDFISALRKETCNKSNMCESSKEALAENNLNLPKMAEKDGCFQSGFNEETCLVKIITGLLEFEVYLEYLQNRFESSEEQARAVQMRTKDLIQFLQKKAKNLDAITTPDPTTNASLLTKLQAQNQWLQRMTTHLILRSFKEFLQSSLRALRQM
Take B1: the “ability to bind to the IL-6 receptor (% of wild type)” value (shortened to “ability to bind … (% of wild type)”) with hIL-6 receptor [2] was 137%.

B2: IL-6 DFRD/W157R/D160R (ligand)
chain: PVPPGEDSKDVAAPHRQPLTSSERIDKQIRDILDFISALRKETCNKSNMCESSKEALAENNLNLPKMAEKDGCFQSGFNEETCLVKIITGLLEFEVYLEYLQNRFESSEEQARAVQMRTKDLIQFLQKKAKNLDAITTPDPTTNASLLTKLQAQNQRLQRMTTHLILRSFKEFLQSSLRALRQM
Turning to B2, the “Biological activity on human hepatoma cells” value with gp130 came out at 0%. For the same molecule, the “ability to bind … (% of wild type)” value with hIL-6 receptor [2] was found to be 130%.

B3: IL-6 DFRD/T162D (ligand)
chain: PVPPGEDSKDVAAPHRQPLTSSERIDKQIRDILDFISALRKETCNKSNMCESSKEALAENNLNLPKMAEKDGCFQSGFNEETCLVKIITGLLEFEVYLEYLQNRFESSEEQARAVQMRTKDLIQFLQKKAKNLDAITTPDPTTNASLLTKLQAQNQWLQDMDTHLILRSFKEFLQSSLRALRQM
Turning to B3, the “Biological activity on human hepatoma cells” value with gp130 worked out at 0%. Further, the “ability to bind … (% of wild type)” value with hIL-6 receptor [2] amounted to 39%.
